Data on 2 molecules can be found in article PMC5199209, “A Cascade of Thermophilic Enzymes As an Approach to the Synthesis of Modified Nucleotides” (Acta Naturae, 2016).

The target of data set [1] is T1, TspRK (ribokinase from Thermus sp. 2.9) (Thermus sp. 2.9, UniProt A0A0B0SD75).
T1 construct: gene rbsK; full-length, six-histidine tag (pET-23d+, NcoI/XhoI), codon-optimized synthetic gene; E. coli host
T1 sequence (A0A0B0SD75 1-301): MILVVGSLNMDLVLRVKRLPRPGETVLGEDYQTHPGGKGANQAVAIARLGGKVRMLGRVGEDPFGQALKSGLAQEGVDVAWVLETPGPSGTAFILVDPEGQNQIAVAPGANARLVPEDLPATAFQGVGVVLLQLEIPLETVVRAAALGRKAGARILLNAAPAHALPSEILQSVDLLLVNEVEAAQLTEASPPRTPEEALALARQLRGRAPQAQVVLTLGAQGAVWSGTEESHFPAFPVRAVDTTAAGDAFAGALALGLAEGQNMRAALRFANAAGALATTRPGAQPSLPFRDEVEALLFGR
Put plainly: HPLC of nucleotides (ATP consumption), nonlinear regression with substrate-inhibition equation. Type of data set: biochemical. To be noted: 1 mM ATP, 5 mM MgCl2, 50 mM KCl, 10 mM KH2PO4, pH 8.0, 75 °C; substrate inhibition by binding of a second molecule; second site. From the text: HPLC of nucleotides (ATP consumption), nonlinear regression with substrate-inhibition equation on TspRK (ribokinase from Thermus sp. 2.9)

Substrate in data set [2]: Nc1ncnc2c1ncn2[C@@H]1O[C@H](COP(=O)(O)OP(=O)(O)OP(=O)(O)O)[C@@H](O)[C@H]1O
Put plainly: HPLC of nucleotides (ATP consumption), nonlinear regression, Michaelis-Menten. Type of data set: biochemical, Thermus sp. 2.9. To be noted: 1 mM D-ribose, 5 mM MgCl2, 50 mM KCl, 10 mM KH2PO4, pH 8.0, 75 °C. From the text:
HPLC of nucleotides (ATP consumption), nonlinear regression, Michaelis-Menten on TspRK (ribokinase from Thermus sp. 2.9)

Turning to `OC1OC[C@@H](O)[C@@H](O)[C@H]1O` (stereo partly drawn) [D-ribose], the “Ki, μM” value in data set [1] is 1,700 ± 400 μM.

B1: TspRK (ribokinase from Thermus sp. 2.9) (Thermus sp. 2.9) (protein)
chain: MILVVGSLNMDLVLRVKRLPRPGETVLGEDYQTHPGGKGANQAVAIARLGGKVRMLGRVGEDPFGQALKSGLAQEGVDVAWVLETPGPSGTAFILVDPEGQNQIAVAPGANARLVPEDLPATAFQGVGVVLLQLEIPLETVVRAAALGRKAGARILLNAAPAHALPSEILQSVDLLLVNEVEAAQLTEASPPRTPEEALALARQLRGRAPQAQVVLTLGAQGAVWSGTEESHFPAFPVRAVDTTAAGDAFAGALALGLAEGQNMRAALRFANAAGALATTRPGAQPSLPFRDEVEALLFGR
notes: full-length, six-histidine tag (pET-23d+, NcoI/XhoI), codon-optimized synthetic gene; E. coli host
For B1, in data set [2], the Km turned out to be 75 ± 11 µM, the Vmax turned out to be 13 µM/min/mg, the catalytic constant (kcat) came to 6.8 ± 0.7 s⁻¹ and the kcat/Km was 91000 M⁻¹ s⁻¹.

As a reminder, the Km is the substrate concentration at which the rate is half of its maximum. As a reminder, the Vmax is the top rate of the reaction or transport when substrate is in excess. What is called kcat is the maximal rate divided by the concentration of active sites. In general, kcat/Km refers to the second-order rate constant that governs catalysis at low substrate concentration.
